Measurements: IntAct's records for PubMed 20952388

B1: Ethylene receptor 1 (Arabidopsis thaliana (Mouse-ear cress)), P49333 (parent)
chain: MEVCNCIEPQWPADELLMKYQYISDFFIAIAYFSIPLELIYFVKKSAVFPYRWVLVQFGAFIVLCGATHLINLWTFTTHSRTVALVMTTAKVLTAVVSCATALMLVHIIPDLLSVKTRELFLKNKAAELDREMGLIRTQEETGRHVRMLTHEIRSTLDRHTILKTTLVELGRTLALEECALWMPTRTGLELQLSYTLRHQHPVEYTVPIQLPVINQVFGTSRAVKISPNSPVARLRPVSGKYMLGEVVAVRVPLLHLSNFQINDWPELSTKRYALMVLMLPSDSARQWHVHELELVEVVADQVAVALSHAAILEESMRARDLLMEQNVALDLARREAETAIRARNDFLAVMNHEMRTPMHAIIALSSLLQETELTPEQRLMVETILKSSNLLATLMNDVLDLSRLEDGSLQLELGTFNLHTLFREVLNLIKPIAVVKKLPITLNLAPDLPEFVVGDEKRLMQIILNIVGNAVKFSKQGSISVTALVTKSDTRAADFFVVPTGSHFYLRVKVKDSGAGINPQDIPKIFTKFAQTQSLATRSSGGSGLGLAISKRFVNLMEGNIWIESDGLGKGCTAIFDVKLGISERSNESKQSGIPKVPAIPRHSNFTGLKVLVMDENGVSRMVTKGLLVHLGCEVTTVSSNEECLRVVSHEHKVVFMDVCMPGVENYQIALRIHEKFTKQRHQRPLLVALSGNTDKSTKEKCMSFGLDGVLLKPVSLDNIRDVLSDLLEPRVLYEGM
partner: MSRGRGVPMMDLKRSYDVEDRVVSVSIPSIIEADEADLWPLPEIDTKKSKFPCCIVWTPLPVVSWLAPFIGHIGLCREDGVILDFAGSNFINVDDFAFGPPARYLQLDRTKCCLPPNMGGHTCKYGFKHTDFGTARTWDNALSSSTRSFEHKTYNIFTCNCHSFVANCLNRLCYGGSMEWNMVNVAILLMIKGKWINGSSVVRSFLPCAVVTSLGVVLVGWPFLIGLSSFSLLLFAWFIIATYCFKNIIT

Variants of: B1
Conditions: with rte1_arath RTE1, F4ITL6

| effect of a mutation on the interaction | Variant |
| --- | --- |
| decreasing interaction | A102T |
| decreasing interaction | C65W |
